Experimental data as given in PMC2959155 (Journal of immunology (Baltimore, Md. : 1950), 2008).

Columns and labels:
[1] = biological target: T1, recombinant His-tagged 6xEMPD (6 times repeated EMPD of mouse mIgE) (Mus musculus (mouse), membrane IgE …); assay: ELISA
T1 chain: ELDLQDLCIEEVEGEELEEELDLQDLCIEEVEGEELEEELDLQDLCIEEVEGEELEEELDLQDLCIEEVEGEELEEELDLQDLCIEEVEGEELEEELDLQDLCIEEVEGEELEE

[2] = biological target: T1, recombinant His-tagged 6xEMPD (6 times …); assay: SPR

B1: mAbA9, mouse monoclonal anti-mouse EMPD antibody of γ1 isotype (antibody, V domains shown)
VH: EVQLVESGGGLVQPGGSLRLSCATSGFTFTDYYMTWVRQPPGKALEWLGFIRNKANGYTTEYSASVKGRFTVSRDNSQSILYLQMNTLRAEDSATYYCASPIYYGSPSWLWTYWGQGTSVTVSS
VL: QIVLTQSPAIMAASLGQKVTMTCSASSSVSSSYLHWYQQKSGASPKPLIHRTSNLASGVPARFSGSGSGTSYSLTISSVEAEDDATYYCQQWSGYPLTFGAGTKLELK
With B1 as the binder, how does the “% competition at 10-fold molar excess of 6xEMPD” value [1] read?
Its value is 43%.

What about the Kd [2] of the same binder?
Its Kd is 7.4 nM.
